According to publication PMC2875865 (Nature cell biology, 2010):

Tests used:
[1] = target: full-length FLAG-tagged STIM1 purified from insect cells (human, UniProt Q13586 23-685); assay: pull-down
[2] = target: full-length FLAG-tagged Orai1 purified from insect cells (human, UniProt Q96D31 1-301); assay: pull-down
Chain of full-length FLAG-tagged Orai1 purified from insect cells (Q96D31 whole entry): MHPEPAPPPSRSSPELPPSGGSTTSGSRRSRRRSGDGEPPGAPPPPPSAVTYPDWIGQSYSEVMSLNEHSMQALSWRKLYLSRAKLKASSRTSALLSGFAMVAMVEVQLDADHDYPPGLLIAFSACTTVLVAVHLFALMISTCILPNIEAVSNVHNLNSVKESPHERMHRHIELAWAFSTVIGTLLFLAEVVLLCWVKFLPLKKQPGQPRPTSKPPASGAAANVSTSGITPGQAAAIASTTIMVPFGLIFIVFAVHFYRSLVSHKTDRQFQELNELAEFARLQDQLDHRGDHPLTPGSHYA

Chain of full-length FLAG-tagged STIM1 purified from insect cells (Q13586 23-685): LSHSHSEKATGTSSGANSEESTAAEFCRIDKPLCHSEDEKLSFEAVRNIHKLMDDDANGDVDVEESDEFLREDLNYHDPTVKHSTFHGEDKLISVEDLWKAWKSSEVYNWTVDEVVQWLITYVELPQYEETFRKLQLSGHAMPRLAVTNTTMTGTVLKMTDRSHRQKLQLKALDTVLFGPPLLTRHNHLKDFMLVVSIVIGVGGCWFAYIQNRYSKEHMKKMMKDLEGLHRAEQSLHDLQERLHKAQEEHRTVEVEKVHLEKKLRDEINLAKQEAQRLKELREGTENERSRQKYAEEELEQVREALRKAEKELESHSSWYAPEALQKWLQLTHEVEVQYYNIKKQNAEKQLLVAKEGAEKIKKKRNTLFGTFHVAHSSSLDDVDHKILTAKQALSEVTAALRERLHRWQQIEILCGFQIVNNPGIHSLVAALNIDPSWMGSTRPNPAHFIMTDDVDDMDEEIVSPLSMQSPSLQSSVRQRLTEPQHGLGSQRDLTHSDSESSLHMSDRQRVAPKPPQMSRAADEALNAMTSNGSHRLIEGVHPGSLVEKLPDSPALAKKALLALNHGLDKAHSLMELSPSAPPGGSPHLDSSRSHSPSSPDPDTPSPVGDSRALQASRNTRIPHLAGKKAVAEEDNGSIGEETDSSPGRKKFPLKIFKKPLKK

B1: GST-fused STIM1 serine/threonine rich sequence (S/T) (domain or fragment)
chain: SSLDDVDHKILTAKQALSEVTAALRERLHRWQQIEILCGFQIVNNPGIHSLVAALNIDPSWMGSTRPNPAHFIMTDDVDDMDEEIVSPLSMQSPSLQSSVRQRLTEPQHGLGSQRDLTHSDSESSLHMSDRQRVAPKPPQMSRAADEALNAMTSNGSHRLIEGVHPGSLVEKLPDSPALAKKALLALNHGLDKAHSLMELS
B1: binds [1]; binds [2].
